A value given as a limit tells only on which side of the number the result lay.

For one assay, the target named is HLA-A*2401 (purified HLA class I molecule) (human). In words: competition with 125I-labelled standard peptide for purified HLA, gel filtration.
Settings: not given
For the molecule VFRHGDRSPI [PAP position 41, 10 amino acids], the relative binding ratio (IC50 of standard peptide / IC50 of test peptide) was 0.0005.
For SWPQGFGQL [PAP position 62, 9 amino acids], the relative binding ratio (IC50 of standard peptide / IC50 of test peptide) was 0.0013.
Regarding PYASCHLTEL [PAP position 309, 10 amino acids], the relative binding ratio (IC50 of standard peptide / IC50 of test peptide) came out at 0.024.
In the case of SYKHEQVYI [PAP position 96, 9 amino acids], the relative binding ratio (IC50 of standard peptide / IC50 of test peptide) worked out at 0.26.
Still for that read-out and setting: for RFAELVGPVI [PAP position 355, 10 amino acids] the value was 0.0037.
On to RFQELESETL [PAP position 163, 10 amino acids], for which the relative binding ratio (IC50 of standard peptide / IC50 of test peptide) stood at 0.0001.
As to PYKDFIATL [PAP position 183, 9 amino acids], the relative binding ratio (IC50 of standard peptide / IC50 of test peptide) amounted to 0.11.

The target of a further assay is HLA-A*2401 (human). Kind of assay: competition with 125I-labelled probe peptide for purified HLA, gel filtration.
Settings: not given
In the case of DFIATLGKL [PAP position 186, 9 amino acids], the relative binding ratio (IC50 of standard peptide / IC50 of test peptide) is 0.0002.
For GWGSIEPEEF [Kallikrein position 156, 10 amino acids], the relative binding ratio (IC50 of standard peptide / IC50 of test peptide) was 0.0001.
Take EYIRKRYRKF [PAP position 83, 10 amino acids]: the relative binding ratio (IC50 of standard peptide / IC50 of test peptide) was found to be 0.0067.
For IWSKVYDPL [PAP position 205, 9 amino acids], the relative binding ratio (IC50 of standard peptide / IC50 of test peptide) was determined as 0.0024.
On to HYRKWIKDTI [Kallikrein position 248, 10 amino acids], for which the relative binding ratio (IC50 of standard peptide / IC50 of test peptide) stood at 0.055.
As to GFLFLLFFW [PAP position 17, 9 amino acids], the relative binding ratio (IC50 of standard peptide / IC50 of test peptide) was found to be 0.0016.
In the case of GFLFLLFFWL [PAP position 17, 10 amino acids], the relative binding ratio (IC50 of standard peptide / IC50 of test peptide) came to 0.0007.
As to AMTNLAALF [PAP position 116, 9 amino acids], the relative binding ratio (IC50 of standard peptide / IC50 of test peptide) is 0.015.
Regarding CYASGWGSI [Kallikrein position 152, 9 amino acids], the relative binding ratio (IC50 of standard peptide / IC50 of test peptide) came out at 0.17.
Regarding FFWLDRSVL [PAP position 23, 9 amino acids], the relative binding ratio (IC50 of standard peptide / IC50 of test peptide) was determined as 0.0017.

The next assay deals with HLA-A*0201 (human).
Test: not given
The following applies: remark: other sources report otherwise.
The molecule ALSVGCTGV [peptide 1418.15 (HuK2.9.V9)] gave an IC50 of 24 nM.
In turn, DLMLLRLSEPV [peptide 63.0109 (HuK2.120.V11)] registered a concentration for half-maximal inhibition (IC50) of 50 nM.

The target of a further assay is HLA-A*0201 (human). In words: inhibition of 125I probe peptide binding to purified HLA. The following applies: remark: other sources report otherwise.
Consider DLPTQEPAL [PSA position 136, 9 amino acids], for which the relative binding ratio was found to be 0.0003.
Molecule AASLSLGFLFL [Peptide 63.0137 … (PAP.11)] yielded an IC50 of 227 nM.
Same read-out and setting: next, SLSLGFLFLL [Peptide 1419.51 … (PAP.13)]: 40 nM.
In turn, LLLARAASL [Peptide 20.0044 … (PAP.6)] had an IC50 of 208 nM. Against the preceding molecule, the IC50 is about 5.2-fold higher.

Another assay concerns the target HLA-A*0206 (human). The assay is described as above. The conditions noted are these: remark: other sources report otherwise.
For the molecule LLLARAASV [Peptide 60.0201 … (PAP.6.V9)], the IC50 was determined as 95 nM. This lies in the double-digit nanomolar range.
In turn, AASLSLGFLFL [Peptide 63.0137 … (PAP.11)] displayed a half-inhibitory concentration (IC50) of 95 nM.
As to FLNESYKHEQV [Peptide 1419.55 … (PAP.92)], the IC50 worked out at 381 nM.
The same measure, in the same setting: for LLFFWLDRSVL [Peptide 63.0139 … (PAP.21)] the value was 822 nM.

Another assay addresses HLA-A*0201 (human).
Test: not given
The following applies: remark: other sources report otherwise. The source holds these as a separate data set.
The molecule MLLRLSEPA [PSA.118 (9-mer …)] displayed an IC50 of less than 200 nM.
LMLLRLSEPA [PSA.117] came in with an IC50 of less than 200 nM.
The same measure, in the same setting: for GMPEGDLVYV [PSM.168] the value was less than 200 nM.
As for IMYSAHDTTV [PAP.284], the IC50 was less than 200 nM.
VLAGGFFLL [PSM.27] gave a half-inhibitory concentration (IC50) of less than 200 nM.
Consider RMMNDQLMFL [PSM.662], for which the IC50 is less than 200 nM.
Regarding FLRPRSLQCV [HuK2.165], the half-inhibitory concentration (IC50) is less than 200 nM.
In turn, KLQCVDLHV [PSA.166] displayed an IC50 of less than 200 nM.
For the molecule FLNESYKHEQV [PAP.92], the IC50 was less than 200 nM.
As for QLMFLERAFI [PSM.667], the IC50 was less than 200 nM.
ILLWQPIPV [PAP.135]: the half-maximal inhibitory concentration (IC50) was less than 200 nM.
FLTPKKLQCV [PSA.161] had an IC50 of less than 200 nM.
Consider LLFFWLDRSV [PAP.21], for which the IC50 is less than 200 nM.
LVLAGGFFL [PSM.26]: the IC50 was less than 200 nM.
The molecule GLPSIPVHPI [PSM.288] displayed an IC50 of less than 200 nM.
The molecule ALGTTCYA [PSA.143] showed a concentration for half-maximal inhibition (IC50) of less than 200 nM.
As for ALFDIESKV [PSM.711], the IC50 was less than 200 nM.
The molecule LLQERGVAYI [PSM.441] registered an IC50 of less than 200 nM.
Same read-out and setting: for SLHLLSNDMCA [HuK2.175] the value was less than 200 nM; for ALDVYNGLL [PAP.299], less than 200 nM.
VLAKELKFV [PAP.30] gave a concentration for half-maximal inhibition (IC50) of less than 200 nM.
